Measurements taken from the supplement of paper PMC6757056.
± gives the standard deviation of the averaged measurements.

B1: library; a variant is named by its letters at N, in order (parent)
chain: GCUGUCACCGGUGUAUUACCCUAGUGGUCGACCGGUCUGAUGAGUCUNNNNNNAGACGAAACAGC

Legend:
hypoxanthine [1] = variants of: B1; experiment: FACS-Seq fitted mean relative fluorescence mCherry/BFP without ligand (log10 relative fluorescence); ligand: hypoxanthine (xanthine aptamer); higher = higher reporter protein expression; conditions: HEK293T, ligand present: no
In short: (§1)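 To measure fluorescence, a normal distribution was fitted to read counts across sorted bins. The reporter libraries were HEK293T cells transduced by lentivirus with mCherry under ribozyme-switch control and an EF1α-BFP marker, enriched and then kept with or without ligand for 48 h. Sorting used 6 mCherry/BFP bins, and bin genomic DNA was PCR-amplified and sequenced on MiSeq. Fitted means of log10(mCherry/BFP) were scaled to five spiked-in control ribozymes.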

hypoxanthine [2] = variants of: B1; experiment: normalized RNA/DNA level with ligand (relative to sTRSVctl = 100) (log10 (% of sTRSVctl)); ligand: hypoxanthine (xanthine aptamer); higher = less ribozyme self-cleavage, higher mRNA level; conditions: ligand concentration (+) RNA-Seq: 5 mM, HEK293T, reporter: mCherry (pCS4076), ligand present: yes
In short: (§2)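 HEK293T cells were transfected with library plasmids carrying ribozyme switches linked to an mCherry reporter, or an eGFP reporter in some ligand experiments, at 4 µg per well of a 6-well plate, with any ligand added 1 h beforehand. After 72 h, total RNA was extracted with EDTA, reverse-transcribed, amplified, barcoded and sequenced. RNA level was defined as RNA reads over DNA reads, normalized to a spiked-in non-cleaving sequence or to the top-ranked sequences. That value was multiplied by 100 and converted to log10, the top set was 25 sequences, and only sequences with ≥100 DNA reads were retained.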

hypoxanthine [3] = variants of: B1; experiment: normalized RNA/DNA level without ligand (relative to sTRSVctl = 100) (log10 (% of sTRSVctl)); ligand: hypoxanthine (xanthine aptamer); higher = less ribozyme self-cleavage, higher mRNA level; conditions: HEK293T, reporter: mCherry (pCS4076), ligand present: no
In short: as §2

hypoxanthine [4] = variants of: B1; experiment: FACS-Seq fitted mean relative fluorescence mCherry/BFP with ligand (log10 relative fluorescence); ligand: hypoxanthine (xanthine aptamer); ligand concentration (+) FACS-Seq: 5 mM; higher = higher reporter protein expression; conditions: HEK293T, ligand present: yes
In short: as §1

Variant | FACS-Seq fitted mean (log10) (hypoxanthine [1]) | normalized RNA/DNA level with ligand (log10) (hypoxanthine [2]) | normalized RNA/DNA level without ligand (log10) (hypoxanthine [3]) | FACS-Seq fitted mean (log10) (hypoxanthine [4])
GCACAA | 0.663 ± 0.02 | 1.86 ± 0.046 | 1.75 ± 0.019 | 0.678 ± 0.026
GAUUCG | -0.06 ± 0.056 | 1.906 ± 0.0054 | 1.54 ± 0.021 | 0.357 ± 0.021
CCAAGC | 0.126 ± 0.14 | 1.938 ± 0.012 | 1.79 ± 0.15 | 0.366 ± 0.074
CCAAGU | 0.347 ± 0.027 | 1.94 ± 0.024 | 1.863 ± 0.016 | 0.544 ± 0.032
GCAAUC | 0.498 ± 0.03 | 1.98 ± 0.058 | 1.77 ± 0.0096 | 0.531 ± 0.046
GCAAUG | 0.028 ± 0.018 | 1.87 ± 0.05 | 1.436 ± 0.0057 | 0.443 ± 0.04
GCAAUA | 0.126 ± 0.036 | 1.941 ± 0.016 | 1.87 ± 0.026 | 0.466 ± 0.071
UAUGGC | -0.121 ± 0.027 | 1.92 ± 0.012 | 1.82 ± 0.022 | 0.322 ± 0.0061
UAUGGU | 0.514 ± 0.064 | 1.88 ± 0.036 | 1.527 ± 0.004 | 0.643 ± 0.029
UAUGGG | 0.525 ± 0.08 | 1.857 ± 0.0095 | 1.41 ± 0.084 | 0.723 ± 0.072
UCAAGA | 0.386 ± 0.04 | 1.92 ± 0.028 | 1.54 ± 0.051 | 0.599 ± 0.074
UCAAGU | 0.221 ± 0.018 | 1.91 ± 0.0075 | 1.63 ± 0.043 | 0.415 ± 0.046
AAUCUG | 0.297 ± 0.034 | 1.85 ± 0.022 | 1.43 ± 0.1 | 0.656 ± 0.024
AAUCUA | 0.651 ± 0.051 | 1.922 ± 0.014 | 1.8 ± 0.059 | 0.6869 ± 0.0045
GAUGCG | 0.0728 ± 0.0046 | 1.87 ± 0.038 | 1.498 ± 0.0066 | 0.5658 ± 0.0024
GAUGCC | 0.537 ± 0.022 | 1.96 ± 0.024 | 1.879 ± 0.018 | 0.5688 ± 0.0033
GAUGCU | -0.0807 ± 0.06 | 1.93 ± 0.063 | 1.867 ± 0.012 | 0.0649 ± 0.0092
GAUCGG | 0.125 ± 0.0082 | 1.911 ± 0.012 | 1.59 ± 0.07 | 0.418 ± 0.018
ACACCC | 0.129 ± 0.016 | 1.97 ± 0.1 | 1.87 ± 0.12 | 0.45298 ± 0.00015
UCACCA | 0.743 ± 0.044 | 1.93 ± 0.025 | 1.919 ± 0.0074 | 0.834 ± 0.076
UCACCU | 0.67 ± 0.034 | 1.94 ± 0.037 | 1.94 ± 0.061 | 0.419 ± 0.013
UCACCG | 0.705 ± 0.011 | 1.94 ± 0.027 | 1.7 ± 0.025 | 0.592 ± 0.045
UCAACG | 0.504 ± 0.15 | 1.918 ± 0.0024 | 1.783 ± 0.015 | 0.585 ± 0.091
UCAACA | 0.101 ± 0.027 | 1.959 ± 0.018 | 1.84 ± 0.024 | 0.297 ± 0.054

Variant | FACS-Seq fitted mean (log10) (hypoxanthine [1]) | normalized RNA/DNA level with ligand (log10) (hypoxanthine [2]) | normalized RNA/DNA level without ligand (log10) (hypoxanthine [3]) | FACS-Seq fitted mean (log10) (hypoxanthine [4])
GAUGAC | 0.654 ± 0.023 | 1.92 ± 0.02 | 1.72 ± 0.023 | 0.526 ± 0.07
GAUGAG | 0.0708 ± 0.0074 | 1.74 ± 0.028 | 1.3 ± 0.067 | 0.572 ± 0.047
GAUGAA | 0.529 ± 0.025 | 1.886 ± 0.0083 | 1.711 ± 0.013 | 0.52 ± 0.051
GAUGAU | 0.537 ± 0.094 | 1.91 ± 0.05 | 1.767 ± 0.015 | 0.495 ± 0.025
UAUUCA | 0.158 ± 0.15 | 1.942 ± 0.0084 | 1.925 ± 0.0052 | 0.144 ± 0.082
GCAGAG | 0.09517 ± 0.00035 | 1.78 ± 0.031 | 1.35 ± 0.051 | 0.558 ± 0.037
GCAGAU | -0.106 ± 0.1 | 1.92 ± 0.077 | 1.76 ± 0.031 | -0.1997 ± 0.0017
GCAGAA | 0.408 ± 0.02 | 1.88 ± 0.057 | 1.7 ± 0.031 | 0.472 ± 0.013
CAUGGU | 0.331 ± 0.045 | 1.82 ± 0.02 | 1.755 ± 0.0046 | 0.455 ± 0.014
CAUGGG | 0.245 ± 0.013 | 1.86 ± 0.038 | 1.39 ± 0.038 | 0.603 ± 0.0033
GAUGGC | 0.369 ± 0.012 | 1.89 ± 0.016 | 1.598 ± 0.0036 | 0.596 ± 0.041
GAUGGA | 0.4617 ± 0.0039 | 1.913 ± 0.0011 | 1.67 ± 0.036 | 0.698 ± 0.029
GAUGGG | -0.0971 ± 0.21 | 1.81 ± 0.025 | 1.3 ± 0.053 | 0.3779 ± 0.0029
GAUGGU | 0.501 ± 0.024 | 1.95 ± 0.07 | 1.76 ± 0.022 | 0.748 ± 0.062
CCAGAA | 0.561 ± 0.0022 | 1.94 ± 0.053 | 1.79 ± 0.053 | 0.631 ± 0.011
CCAGAG | 0.628 ± 0.021 | 1.95 ± 0.038 | 1.51 ± 0.066 | 0.741 ± 0.022
UCAAAG | -0.374 ± 0.059 | 1.92 ± 0.072 | 1.68 ± 0.039 | -0.184 ± 0.025
UCAAAU | 0.4822 ± 0.0021 | 1.92 ± 0.02 | 1.77 ± 0.036 | 0.54 ± 0.053
UCAAAA | 0.491 ± 0.022 | 1.934 ± 0.013 | 1.717 ± 0.0054 | 0.446 ± 0.019
CCACUG | 0.339 ± 0.054 | 1.917 ± 0.012 | 1.8 ± 0.1 | 0.526 ± 0.076
GCACUG | 0.25 ± 0.031 | 1.877 ± 0.012 | 1.45 ± 0.029 | 0.464 ± 0.011
GCACUU | 0.8516 ± 0.0035 | 1.965 ± 0.015 | 1.9 ± 0.068 | 0.751 ± 0.069
GCACUA | 0.503 ± 0.091 | 1.939 ± 0.0064 | 1.81 ± 0.027 | 0.489 ± 0.08
UCACUG | 0.184 ± 0.08 | 1.89 ± 0.041 | 1.55 ± 0.012 | 0.463 ± 0.081

Variant | FACS-Seq fitted mean (log10) (hypoxanthine [1]) | normalized RNA/DNA level with ligand (log10) (hypoxanthine [2]) | normalized RNA/DNA level without ligand (log10) (hypoxanthine [3]) | FACS-Seq fitted mean (log10) (hypoxanthine [4])
CCAGCC | -0.754 ± 0.048 | 2 ± 0.026 | 1.916 ± 0.013 | -0.409 ± 0.044
GAUGUU | 0.33 ± 0.0059 | 1.914 ± 0.017 | 1.841 ± 0.0059 | 0.447 ± 0.029
GAUGUG | 0.2 ± 0.026 | 1.82 ± 0.019 | 1.31 ± 0.06 | 0.673 ± 0.077
UCAGCG | 0.383 ± 0.009 | 1.94 ± 0.067 | 1.8203 ± 0.0012 | 0.656 ± 0.083
CAUUGA | 0.221 ± 0.12 | 1.912 ± 0.0057 | 1.82 ± 0.053 | 0.32 ± 0.0063
ACAAAG | 0.343 ± 0.016 | 1.901 ± 0.0069 | 1.54 ± 0.028 | 0.696 ± 0.034
ACAAAA | 0.4 ± 0.17 | 1.904 ± 0.0062 | 1.81 ± 0.021 | 0.1925 ± 0.0013
ACAAAU | 0.311 ± 0.091 | 1.89 ± 0.029 | 1.65 ± 0.044 | 0.331 ± 0.014
ACAAAC | 0.5372 ± 0.0045 | 1.93 ± 0.062 | 1.826 ± 0.017 | 0.517 ± 0.046
ACAAGA | 0.164 ± 0.1 | 1.891 ± 0.0031 | 1.65 ± 0.037 | 0.121 ± 0.037
ACAAGG | -0.00738 ± 0.11 | 1.83 ± 0.065 | 1.26 ± 0.024 | 0.113 ± 0.14
ACAAGC | 0.743 ± 0.017 | 1.92 ± 0.033 | 1.76 ± 0.015 | 0.863 ± 0.082
CAUUUA | -0.0161 ± 0.022 | 1.98 ± 0.036 | 1.77 ± 0.034 | 0.532 ± 0.019
CAUUUC | 0.66 ± 0.057 | 1.92 ± 0.043 | 1.9 ± 0.069 | 0.774 ± 0.066
GCAGCA | 0.363 ± 0.034 | 1.983 ± 0.0069 | 1.827 ± 0.016 | 0.663 ± 0.015
GCAGCC | 0.465 ± 0.1 | 1.99 ± 0.044 | 1.78 ± 0.023 | 0.532 ± 0.069
CAUGCU | 0.614 ± 0.036 | 1.97 ± 0.039 | 1.904 ± 0.013 | 0.529 ± 0.073
CAUGCG | 0.687 ± 0.064 | 1.92 ± 0.049 | 1.91 ± 0.082 | 0.645 ± 0.005
GAUUUA | 0.541 ± 0.043 | 1.89 ± 0.036 | 1.87 ± 0.051 | 0.437 ± 0.1
GAUUUG | 0.162 ± 0.045 | 1.87 ± 0.046 | 1.4542 ± 0.00087 | 0.521 ± 0.0058
GAUUGG | -0.303 ± 0.024 | 1.794 ± 0.017 | 1.29 ± 0.047 | 0.393 ± 0.017
GAUUGC | 0.4839 ± 0.0013 | 1.87 ± 0.054 | 1.65 ± 0.043 | 0.553 ± 0.01
GAUUGA | 0.348 ± 0.023 | 1.92 ± 0.022 | 1.61 ± 0.05 | 0.455 ± 0.063
GAUUGU | 0.452 ± 0.076 | 1.944 ± 0.01 | 1.77 ± 0.042 | 0.601 ± 0.054
